Results on 5 substances are retold here after US8492329B2, “Bioactive peptides and methods of using same” (Compugen Ltd., priority 2007, dated 2013).

Assay [1] has as its target T1, LGR7 (RXFP1) (Homo sapiens, UniProt Q9HBX9).
T1 sequence (Q9HBX9 1-757): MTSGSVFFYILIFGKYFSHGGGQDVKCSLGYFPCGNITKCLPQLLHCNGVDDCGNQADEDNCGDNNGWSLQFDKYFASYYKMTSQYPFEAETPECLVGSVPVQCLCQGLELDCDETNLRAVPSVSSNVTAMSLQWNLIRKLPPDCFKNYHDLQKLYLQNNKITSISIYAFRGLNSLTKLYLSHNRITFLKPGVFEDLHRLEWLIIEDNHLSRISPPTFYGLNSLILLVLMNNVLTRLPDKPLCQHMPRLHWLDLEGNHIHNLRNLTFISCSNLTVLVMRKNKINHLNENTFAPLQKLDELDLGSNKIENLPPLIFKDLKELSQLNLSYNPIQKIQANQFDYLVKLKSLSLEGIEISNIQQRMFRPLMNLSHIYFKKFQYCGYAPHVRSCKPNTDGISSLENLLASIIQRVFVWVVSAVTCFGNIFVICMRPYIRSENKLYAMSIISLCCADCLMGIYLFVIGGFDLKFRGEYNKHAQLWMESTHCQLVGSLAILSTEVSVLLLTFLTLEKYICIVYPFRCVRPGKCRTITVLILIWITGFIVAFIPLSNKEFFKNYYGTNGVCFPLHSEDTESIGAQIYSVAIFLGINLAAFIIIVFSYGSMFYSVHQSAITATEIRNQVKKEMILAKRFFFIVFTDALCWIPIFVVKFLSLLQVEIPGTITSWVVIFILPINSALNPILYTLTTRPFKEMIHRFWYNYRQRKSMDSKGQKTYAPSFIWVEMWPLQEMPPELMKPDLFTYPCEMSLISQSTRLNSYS
Description: ACEA RT-CES cell impedance, LGR7 transfected CHO-K1 cells. In kind it is cell-based. Also on record: expressed in transfected cells; host or cells: CHO-K1 (transient). The note with it: for dose response of normalized cell index: end point of the experiment, FIG. 16-19; for affinity to LGR7 compared with other ligands: from cell impedance dose response; for effect on cell impedance (normalized cell index): P74C13V 10 uM, H2 Relaxin 1 uM, FIG. 13. The text has this: ACEA RT-CES screen is a noninvasive and label-free assay for GPCRs that can be used with both engineered and nonengineered cell lines. The assay is based on using cell-electrode impedance to measure minute changes in cellular morphology as a result of ligand-dependent GPCR activation and is described in Naichen Yu, et al., Anal. Chem., 78 (1), 35-43, 2006. 10.1021/ac051695v S0003-2700(05)01695-1. The Rho family of small GTPases, which include Rho, Rac, and CDC42, are well-characterized effectors of oncogenes, growth factor and adhesion-mediated signaling pathways and are not classically thought of as being key effectors for GPCRs. Rho family GTPases participate in a number of cellular processes, the main one being regulation and maintenance of specific structures within the actin cytoskeleton framework. […] The current view of the actin cytoskeleton is that of a dynamic and plastic system that is a reflection and manifestation of the intracellular signaling and not simply a static structure designed to maintain cellular architecture. Since GPCRs couple to the actin cytoskeletal network and induce very defined morphological changes, it is possible to harness this information as a functional and biologically relevant readout for GPCRs.
ACEA biosciences; has designed electronic cell sensor arrays embedded in the bottom of the well of microtiter plates that are capable of measuring minute changes in cell morphology. The electronic sensors measure changes in cell-substrate impedance as a result of the disruption of the ionic environment due to the presence of cell and cell morphology dynamics. The main advantages offered by using cell-substrate impedance and cell morphology as a readout are that both exogenously expressed and endogenous receptors can be assayed without the need for engineering the cell with promiscuous G proteins and reporters or labeling the cells with dyes. In addition, since the readout is noninvasive, multiple stimulations with the same ligand or different ligands can be performed to assess events such as desensitization and receptor cross-talk. Finally, another major aspect of using cell-substrate impedance and cell morphology as a readout is that potentially all GPCRs, regardless of the signaling pathways, can be functionally monitored.
Peptides were synthesized by the solid phase peptide synthesis (SPPS) method, cleaved from the resin, and purified by RP-HPLC unless stated otherwise. The peptide's identity was verified by mass spectrometry. Final purity of peptide was >90% as measured by RP-HPLC. Peptides were diluted in Water (DDW—high purity) containing 0.1% BSA. In some cases peptides were dissolved in Tris-HCl buffer (pH8.2). In other cases either the addition of 1% DMSO or a brief sonication was required. All plates were stored at −80 C until use.
Cells: CHOk1 cell-line (ATCC CCL-61). Cells were maintained and propagated in F-12 HAM nutrient mix (Gibco. Cat# 21765-029) supplemented with 10% HI-FBS (Biological Ind. Cat#04-121-1), 2.5 mL of 200 mm L-Glutamine in Saline Solution (Biological Ind. Cat#03-020-1), 5 mL of Penicillin-Streptomycin Solution 10000/mL Penicillin G & 10 mg/mL Streptomycin Sulfate (Biological Ind. Cat#03-031-1).
One day before the transfection 2×10^6 CHO-k1 cells were plated in T75 flask containing 10 mL of complete growth medium. On the transfection date, FUGENE6 transfection reagent was warmed to ambient temperature by 15 minutes incubation at room temperature and mixed prior to use by vortex.
The transfected DNA mix was prepared in another sterile microfuge tube; Total of 2 μg plasmid DNA mixture which is composed of […] of the target GPCR plasmid and of 2 μg of pIRES plasmid carrying eGFP reporter gene.
The plasmids DNA mixture was then added to the transfection reagent tube and incubated 35 min at RT with gently tapping once every 5 minutes to mix the contents. The DNA-FuGene complex was added drop wise to flask and spread by gentle swirling. […]

The target of assay [2] is LGR8 (RXFP2) (Homo sapiens, UniProt Q8WXD0). The experiment in a line: pCRE-β-gal reporter assay in Forskolin-treated CHO-K1 cells transiently transfected with LGR8. In kind it is cell-based. Details: expressed in transfected cells; host or cells: CHO-K1 (transient). The note with it: 5 uM Forskolin, FIG. 8A-B. The method, then:
The ability of P74C13V (P74) (SEQ ID NO: 10) and P59C13V (P59) and P59C13V-Amide (P59-Amide) (SEQ ID NO: 6 and 5 respectively) to activate LGR7 (RXFP1) and LGR8 (RXFP2) was further tested by testing the ability of these peptides to influence cAMP activity induced by 5 μM Forskolin in CHO-K1 cells transiently transfected with LGR7/pCRE-β-gal or LGR8/pCRE-β-gal as compared to H2 relaxin and INSL3 respectively.
LGR8 transfected CHO-K1 cells were treated with 5 uM of Forskolin to stimulate cAMP. The cells were then challenged with increasing doses of INSL3 (as positive control), P74C13V (P74) (SEQ ID NO: 10), P59C13V with (P59-Amide) and without (P59) amide (SEQ ID NO: 5 and 6, respectively) and P59S-Amide (P59-S) (SEQ ID NO: 1). […] The results are presented as a percentage of Forskolin activity at various concentrations of the peptide (logarithmic scale). Each point represents three unrelated repeats for each experiment.
In general terms: A reporter such as luciferase makes a cellular process visible.

Entries after “also recorded” stand apart in the source; their conditions may differ. No end group written: not given here.

LGR8 (RXFP2), sequence (Q8WXD0 whole entry): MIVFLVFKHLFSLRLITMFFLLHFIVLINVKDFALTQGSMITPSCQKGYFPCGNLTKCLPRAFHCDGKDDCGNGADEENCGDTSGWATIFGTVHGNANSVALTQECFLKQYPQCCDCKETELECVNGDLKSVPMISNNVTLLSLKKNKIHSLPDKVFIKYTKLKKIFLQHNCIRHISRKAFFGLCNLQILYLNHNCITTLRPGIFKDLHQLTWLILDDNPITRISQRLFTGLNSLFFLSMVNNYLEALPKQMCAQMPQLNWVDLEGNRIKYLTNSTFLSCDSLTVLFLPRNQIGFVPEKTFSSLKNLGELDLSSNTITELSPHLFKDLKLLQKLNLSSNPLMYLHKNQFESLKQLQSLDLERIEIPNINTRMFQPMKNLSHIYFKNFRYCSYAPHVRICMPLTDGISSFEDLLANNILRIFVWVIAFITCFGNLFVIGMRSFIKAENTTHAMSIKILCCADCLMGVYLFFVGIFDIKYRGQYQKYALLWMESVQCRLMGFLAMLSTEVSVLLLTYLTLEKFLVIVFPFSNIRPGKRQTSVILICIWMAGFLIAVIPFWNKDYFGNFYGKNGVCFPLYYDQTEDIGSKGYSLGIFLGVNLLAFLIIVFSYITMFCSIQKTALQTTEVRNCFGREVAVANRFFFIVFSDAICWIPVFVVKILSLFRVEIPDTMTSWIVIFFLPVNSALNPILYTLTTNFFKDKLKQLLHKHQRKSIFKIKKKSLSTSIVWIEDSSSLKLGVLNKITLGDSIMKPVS

Regarding “AYAAFSV-Amide (AYAAFSV-NH2) [Peptide P59-S-Amide]”, the “dose response of normalized cell index” value in assay [1] is given as “moderate dose response for the high concentrations; also recorded: no dose response was demonstrated”.

On to “GQKGQVGPPGAAVRRAYAAFSV [Peptide P59C13V]”, for which, in assay [1], the “dose response of normalized cell index” value was “moderate dose response for the high concentrations; also recorded: mild dose dependent activation” and the “affinity to LGR7 compared with other ligands” value is recorded as “significantly lower than that of H2 Relaxin or P74C13V”. In addition, in assay [2], the “CRE activation pattern relative to Forskolin” value is “dual activation pattern effect”.

With “GQKGQVGPPGAAVRRAYAAFSV-Amide (GQKGQVGPPGAAVRRAYAAFSV-NH2) [P59C13V-Amide]”, in assay [2], the “CRE activation pattern relative to Forskolin” value is “slight activation pattern”.

Take “GQKGQVGPPGAAVRRAYAAFSVGRRAYAAFSV-OH [Peptide P74C13V]”: in assay [1], the “effect on cell impedance (normalized cell index)” value is listed as “stronger than the effect of H2 Relaxin”, the “dose response of normalized cell index” value is recorded as “clear dose dependent activation” and the “affinity to LGR7 compared with other ligands” value is “lower than that of H2 Relaxin”. In assay [2], the “CRE activation pattern relative to Forskolin” value is “bell-shaped activation pattern”.

Turning to “H2 Relaxin: H2 Relaxin (ACS), positive control, known ligand of LGR7 (RXFP1) [reference compound]”, in assay [1], the “effect on cell impedance (normalized cell index)” value was “capable of activating a cellular response” and the “dose response of normalized cell index” value is “clear dose dependent activation”.
